17 sequences from a protein production outcome set (Wang et al. 2014) can be followed below.

This series can be described thus: label from the status in PepcDB records.
As for “MTDSTTLQQPAGANNLYGGLLSAQGLDLDQFETIHTQVQAWKTTAGTDVKFVEARELPIVDVILRFKAGTTQDTLYPGLAALTLSMLDEGSQAYTAAQQAEHLERLGAVMEKQVRLEHATLRLRSLSPPSLLDPALAVFTDLVAHPVFHPMALTRIKRQLLQNHASRERLPILRARSEVFRHLFNGHPYGNPLGSTAQGIEAITPEDLRAFHQRAYSASNLEMVVVGDLSPGQAQAISQQISQALPQGWSATELPAAPSAPSATIAVEQAGASSAILLALPMNVPANDPEFLALALASAVLGEGLESRLMVELRQRRGLTYGVHTHVLPLSAGGLFTVEWEVAPQHVQGTQALVETLLQAFIDEGPTQLELQLARKQLEGQLLRGIAQNRQLATLLTEVTHQRQPADHLDTYSARIAELTPADVRAVMQRRLALSHKVLVSVGPGVQQQPLPAPDQ”, the protein production result is given as “failed”.

For “MTDTNTLLVTSLEEGIGKTAITLALATRAHDAGYDVGYMKPKGTRLRSAVGKTRDEDPMLARELLDLETDLHDMEPIVYSPTFIQEAIRGREDPDDLRERLQEGIETCSDGTDMLLVEGSSDLATGSIVDLTDIDIAELLDARVLLVTGYDTPSDTDEILSAAEAIGDRLDGVLFNGVTDATVDELADDVVPFLEGEGIPVHGILPRDRSLAGVTVADLARNLGADILTGDANTDVHVERFSVGAMSGSSALERFRRTRDAVVVTGGDRSEVQTAALEASGINALLLTGGFQPASAVIGQAAEKNVPVLSVQSDTRTTIDRVEEVLRTGQTRNEATVDRMRTLLDDGVDVESLLSVDLLEHHHHHH”, the protein production result was “not failed”.

With “MTDTTQRIFLSYAGPDQAWAEWVGWQLQQAGHQVELDRWHWRTGDDFVQKMNLALGKADAVVALFSRHYFEPKRWTREEWSAAVALRGRLVPVAIELLNDDDIPALLAGTLRTDVHGLDEAAATSALLEAVHGPVPPTGPVDFPGAASADAPTAPDAQRPRLPSSVGLPEVWNVRRRNPDFSGRETVMGQLRTGLLSGRQAVVQALHGMGGIGKTQIALEYAHRFASQYDLVWWVDAEQADQLPVRYTELADRLGVAKSDAGSEPNARALLQHLRTRHRWLLVLDNAEHPDQIEPWLPEGPGHVLITSRNPDWHGIAHQSDLDVFTRTDSLAYLKGRISGMTTEHADLLAQDLGDLPLALAQASGVLRSGMTLDRYRRLLTTDTARLLQESDVRDHPAPLAATVGIAVTRLADDGHADAVALLRLGAFLGPEPIPTAWLETARPRLATIPGDPDDPMWLRNALQPLGRFGLARTDYDAFQIHRLTQAILRTQTGPDPVVAIRDDVTAVLAAVDPGDPRSPADWPAWASLTAHLTAPHVTTALAHQAALRATFSKAAHFLICSGLPRAAHDLSAALHQAWSTDLGPDHPDTLTCAQFLGHATVDLGDYAKGRLIIEDTLVRRRRVLGEDHPDTLRSANDTSTNLSLLGERVEARRMHEDVLARRRRVLGEDHPDTLTSAGNLATILNKSGEYVEARRMQEDVLARRRRVLGEDHPDTLTSAHNLAGLLNSLGEHAESRRMQEDVLARRGLVLGEDHPDTLSSASNLATSLNSLGEHAESRRMHEDVLARRGLVLGQDHPDTLSSANKLATSLNGLGEHAEARRMHEDVLARRGVVLGQDHPSTLASAGNLATTLNSLGEHVEAHRMQEDVLARCRRVLGQDHPDTLTSASNLARTLHTLRQYSEAAELLKEVRASYVRHFGAKHPKTELATRNLATVLIAMGKTHEAQQLTGRKSDKGKRRFGRKRR”, the protein production entry is on record as “failed”.

Regarding “MTEAIVASVATEPSLRPLAVLLVPLVTVGLIFLSKNRPNIREAWSILAAVTMFGIVASMVPDVLNGRVHETDLGFFVEGIELVLRADGLGMLFALVASGLYVVTAIYSIGYMRGHHEPFQTRFFAMLCASVGAALGVAFASNLFMLLVFYEVLTLATYPLVAHDESEKARVSGYKYLAYALSGGLAVFGGMLAVYWLTDPSTITFTRGGIEGLATVAAADPWAARGAFALLAGGFAVKAAVMPLHSWLPSAMVAPTPVSGLLHAVAVVKAGAFGVARTIIDVFGPETVRQIGMGLPLTIAAGATILIASLFALRQDNLKARLAYSTIAQLSYIVLGLSLLSGMGLMGGLLHIPAHAFSKLTLFLCAGALYVELDVKYISEMAGVGKRMPVTMGAFGLASFSMAGIPLMAGFVSKWHLIWGGAEAGYLLVAPLLVLSGVLNVAYFWPIIYTAFFESEDDADQKPVLDNPFGGVFDDDAYLTDGGVSSDDQHEDDSHDDHHDDGHHARPELPPAGGWDRSNWYGGETTLLLVAPLVTTATLMFIFGVAPDYIVFFDLIEGIVDGALEVDN”, the protein production result is “failed”.

With “MTEARKIPKPSFPYGSPGELNSFLPYLLTRITHIWSSELNQALASEKLPTPKLRLLSSLSAYGELTVGQLATLGVMEQSTTSRTVDQLVDEGLAARSISDADQRKRTVVLTRKGKKKLAEISPLINDFHAELVGNVDPDKLQTCIEVLGEILKGKTDY”, the protein production entry is given as “not failed”.

As to “MTEEQFSSYHPPLPPTTEEDRFSWLRLLRSRRVGPTTFRRLMHEHGTAQNALAALPEVARAAGVEGYEICPPGVVEAELKAAKAAKARLLCLGDADYPSHLAGISDAPPLLWLLGDPALLRRPMIALVGARNASSLGTRMARALAQDLGTAGFVVVSGLARGIDTAAHLAALPSGTIAVMAGGVDTVYPAENTHLAADIAQHGLRLSEQPMRLTPQARHFPRRNRIISGLAQAVVVVEAAAKSGSLITARDALDQGREVLAVPGHPFDARAAGCNMLIRDGAHLVRNAEDVITALPALTAPQPQPDLCDLMQQPAPPAKRSLRETVALHSLILDRLGPSPVAEDQLIRDLAASPGEVAPVLVDLELEGRINRQAGGLLSRVN”, the protein production entry is reported as “failed”.

For the sequence “MTEKFGAKSTADEVLSGVDLRGKRFLITGVSSGIGLETARALVAHGASVVGAVRDRAKAERATASVRDAASQGGGTLELTELDLASLQSIRACADRLLADGRRFDSIIANAGVMATPFARTADGFELQFGTNHLGHFALVNRIASLLADNGRLVVLSSQAHRVADVDLDDPNFERQAYDPWVAYGRSKTATSLFAAEFDKRHRDRGIRAASVMPGNSLTDLPRHLRQEDLQGLFETVGKARAEAGLPPAELKDIPQVAATSVWAAVVADKDEIGGHYLDDCAVAPINDTPNPFADGVRSYALDADKAKRLWAKSEEWIGANTAAI”, the protein production result is “failed”.

For “MTELNFHLLPIISDRFTTTTTTSPSFSSHSSSSSSLLSFTKRRRKHQPLVSSIRMEQSRSRNRKDKVVVILGATGAGKSRLSVDLATRFPSEIINSDKIQVYEGLEITTNQITLQDRRGVPHHLLGVINPEHGELTAGEFRSAASNVVKEITSRQKVPIIAGGSNSFVHALLAQRFDPKFDPFSSGSCLISSDLRYECCFIWVDVSETVLYEYLLRRVDEMMDSGMFEELSRFYDPVKSGLETRFGIRKAIGVPEFDGYFKEYPPEKKMIKWDALRKAAYDKAVDDIKRNTWTLAKRQVKKIEMLKDAGWEIERVDATASFKAVMMKSSSEKKWRENWEEQVLEPSVKIVKRHLVQN”, the protein production entry was “failed”.

“MTEPATAESAPAALREMRWWDIDPVLRMERELFPEDAWSRGMFWSELAHARGPGATRRYLVAEEDGHVVGYAGLVTSGEQADVQTIAVARDHWGTGLGARLLTELLRAATDFECTEVLLECRVDNTRAQRLYERFGFEPIGFRRGYYQPGNVDALVMRLTDPSTSVPGTERGTENHG”: the protein production result is “failed”.

On to “MTEQSAHEKYEFKKKLEGLRDKKGRSTELISLYIPPDKQIFDVTNQLKDEHGQAANIKSKLTRTNVQGAIESLLSRLRYLDKVPENGIVYFTGAVDIGANKTSMESEVIVPPDPITVYKYHCDSSFYLEPLEDMLKDKNTYGLLVLDRREATIGLLVGKRIQPFRNLTSTVPGKQRKGGQSAHRFQQLRLIAIHDFYKRIGDAASEVFMAVDHKDLKGVLIGGPSPTKEEFHAGEFLHHELMKKILGLFDTAYTDESGLSELVNAAGEKLQDLELMGQKNAVRDFFKELIADSGKVAYGESQVRANLEINSVDVLLLSEDLRAERVTTKCSVCGYENKWTRRWKPGEPAPAAGNCPKCGSSLEVTDVTDIVDEFSELADKSNAKVVFVSTDFDEGSQLMNAFGGIAAILRYNTGV”, for which the protein production result is recorded as “failed”.

In the case of “MTERGLLIVLSGPSGVGKGTVREAVFKDPETSFDYSISMTTRLPREGEQDGVDYYFRSREVFEQAIKDGKMLEYAEYVGNYYGTPLEYVEEKLAAGVDIFLEIEVQGAMQVRKAMPEGIFIFLTPPDLSELKNRIIGRGTESMEVVEERMETAKKEIEMMASYDYAVVNDVVANAVQKIKGIVETEHLKTERVIHRYKKMLEGLQ”, the protein production result is on record as “not failed”.

Consider “MTESKKLWTGHIHLGEKVDFGVILNQLCQAFNGSPFFSHNAMQMRVIDNQIEGYIDMQPYLIGNVAFQILHGGVAATLLDSIGGIVAMAEIYRRAEATEMAEAIKKVSRLATVDMRVDYLAPGRGQYFIARAEVLRFGRKGCTMRMNLINDENKAIATAIASYAF”, for which the protein production entry is reported as “failed”.

“MTESVARLRGEQLTLGYGKYTVAENLTVEIPDGHFTAIIGPNGCGKSTLLRTLSRLMTPAHGHVWLDGEHIQHYASKEVARRIGLLAQNATTLGDITVQELVARGRYPHQPLFTRWRKEDEEAVTKAMQATGITHLADQSVDTLSGGQRQRAWIAMVLAQETAIMLLDEPTTWLDISHQIDLLELLSELNREKGYTLAAVLHDLNQACRYASHLIALREGKIVAQGAPKEIVTAELIERIYGLRCMIIDDPVAGTPLVVPLGRTAPSTANS”: the protein production entry is “failed”.

On to “MTETKPRIAIRYCTQCNWLLRAGWMAQEILQTFASDIGEVSLIPSTGGLFEITVDGTIIWERKRDGGFPGPKELKQRIRDLIDPERDLGHVDRTKHEGLDT”, for which the protein production result is listed as “not failed”.

With “MTEVALSPRGRSVAYTVRRLSPGQAPAPRARLYVARTSGRDDPRLLFQDEHDIRAPAWHPDGTHLAFVRPVNGTPQVFVIPLNGGVPYRLTDTPHGAQAPQWGPDGERLLFASHVPEPAVRRQTARRPPTERPGRTASDTIRTPPPDTLLVLRHDRTLRPVDTLAVDADGRPQTPTDTTDTLHVPRHSSLSDTLTAPPVRRLAGLSPDSLQAVFDRFRLRSDTTTVAVRPDTAAAPNGTLAQVRRWMHQNRRSGTALVSSRLEIQGERQLRPTPTYRHHYVVDLPAGIRSGRPPRPTPRLLTGGYRSYGQADWLPGGEQVVVSGMPATNESPDRVRRRNLYVADLNTPRLRRLLRIENHTLTSPSVTTDGSTVAFRVESLAPSSDAPAEIGLFALDGRSQPRILTSALDRDVTSVTWAPDGWYLYTTAPSEGGRPLFRFTPFAQDTTDGAPQAPSPTLPTDRATSRNTFTFDSTMVRPAEAEQLTSAARAIHSFDVTDATAVYASTDPTTPSALYANTVSFNNERPLATPNAEWLSRRQVAPPDRMTVSHDSLAVTGWVTRPVAFADSLRHPLFVQARGGPPALSAPYTPEAWFERQYLTGRGLGLVEGFPRGSAGFGTAFRRANDKNWGPGPARDILALADSAAALSWTDSTRVALGGTGYGGTLTAWILGRTNRFAAAVALNGVYDLPALLGGGRAWRLVPAEFGGYPWDGVPPRSLGDPVLSSRLPSPDSTAQTPWTALHRNSPLTYAHRIRTPLLLMQGGADRRVGPSQGERLYKRLKILDRPVEYVRYPEVGHDMSASASPRQRLDRLVRTYEFLARFLEPPAPPTAPQSPPRP”, the protein production entry is given as “failed”.

As for “MTEWYVVLPATILLIALSAFFVIIEFALLAARRNRLEETVETSRSSRAALRSLNELTLMLAGAQLGITMVTFALGAITKPWVHYALMPLFEWARIPLVMADVIAFILSLFIVTFLHLVIGEMAPKSWAIAHPETALRTIAIPARGFINLFRPLLQWINKMANDLVRKVGETPVDRAAAGGYDTDTLHALIEHSRETGALDQQSAAQISGIIKLDKITVGQTLTASPFTHSASATVAEVQAAAQRSGSLRVLIDAPSHLFPHVIHVRDTLGASPDEKASKWSRPILTVAETDTLHQALEYMREHNEQISAVLSADGKTVLGVITWDHILKYLWPASV”, the protein production entry was “failed”.

On to “MTEYKQEQEMEIEALEAILMDEFKEIHSSESGLNTSNRCFQITVTPQDDELEELAIPPVQLALVFSHTENYPDEAPLLDVKSIRGIHVSDLTILKEKLEQEASENLGMAMIYTLVSSAKDWLSEHYGQDDAAEFAEVEAAKEDEVIVPHGEPVTLETFLAWRERYEAELALERAKLMPESALTAPKEKKLTGRQWFESGRGRGTVVIADEEDEEEDEEDIDFEDEDFEDDEEDMLEHYLAEKSDSSAPPTRT”, for which the protein production entry is given as “failed”.
